In patent US20070128187A1 (GENOME THERAPEUTICS, published 2007):

T1: Zmax1/LRP5 ligand binding domain bait LBD1 (Leu969-Pro1376) (human, UniProt O75197 969-1376)
T1 construct: also called pDBleuLBD1; not shown: not described
T1 sequence: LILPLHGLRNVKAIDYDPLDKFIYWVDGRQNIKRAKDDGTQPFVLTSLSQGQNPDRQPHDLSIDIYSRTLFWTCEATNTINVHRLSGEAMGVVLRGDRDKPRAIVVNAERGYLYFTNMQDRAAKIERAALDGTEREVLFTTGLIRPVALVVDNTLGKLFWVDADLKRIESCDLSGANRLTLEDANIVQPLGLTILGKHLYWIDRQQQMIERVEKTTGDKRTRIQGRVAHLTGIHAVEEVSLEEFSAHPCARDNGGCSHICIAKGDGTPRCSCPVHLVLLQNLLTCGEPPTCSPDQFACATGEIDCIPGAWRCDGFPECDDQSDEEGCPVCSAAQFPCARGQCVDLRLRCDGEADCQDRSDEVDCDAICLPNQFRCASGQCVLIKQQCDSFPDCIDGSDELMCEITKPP

T2: Zmax1/LRP5 ligand binding domain bait LBD4 (Arg1070-Pro1376) (human, UniProt O75197 1070-1376)
T2 construct: also called pDBleuLBD4; not shown: not described
T2 sequence: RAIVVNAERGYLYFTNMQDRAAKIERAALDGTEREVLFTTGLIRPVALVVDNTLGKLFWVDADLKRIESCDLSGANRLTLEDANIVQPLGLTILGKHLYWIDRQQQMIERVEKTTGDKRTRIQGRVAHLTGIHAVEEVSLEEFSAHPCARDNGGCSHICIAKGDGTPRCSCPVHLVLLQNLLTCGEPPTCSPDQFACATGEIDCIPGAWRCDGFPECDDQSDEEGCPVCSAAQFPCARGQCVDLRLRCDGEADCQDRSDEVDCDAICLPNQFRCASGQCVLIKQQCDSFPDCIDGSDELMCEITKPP

T3: LRP5LBD-LexA bait (human, UniProt O75197 969-1376, limits assumed)
T3 construct: Neither the limits of the LBD nor the order of the two parts is stated; also called LRP5 LBD fused with LexA; not shown: LexA
T3 sequence: T1 sequence

B1: Dkk-1 clone D11 (F3/R2: Val139-Cys245) (ligand, not shown: large carriers)
chain: VSSDQNHFRGEIEETITESFGNDHSTLDGYSRRTTLSSKMYHTKGQEGSVCLRSSDCASGLCCARHFWSKICKPVLKEGQVCTKHRRKGSHGLEIFQRCYCGEGLSC
B2: Dkk-1 clone D3 (F1/R1: Asn34-Lys182) (ligand, not shown: large carriers)
chain: NSVLNSNAIKNLPPPLGGAAGHPGSAVSAAPGILYPGGNKYQTIDNYQPYPCAEDEECGTDEYCASPTRGGDAGVQICLACRKRRKRCMRHAMCCPGNYCKNGICVSSDQNHFRGEIEETITESFGNDHSTLDGYSRRTTLSSKMYHTK
B3: Dkk-1 clone D4 (F1/R2: Asn34-Cys245) (ligand, not shown: large carriers)
chain: NSVLNSNAIKNLPPPLGGAAGHPGSAVSAAPGILYPGGNKYQTIDNYQPYPCAEDEECGTDEYCASPTRGGDAGVQICLACRKRRKRCMRHAMCCPGNYCKNGICVSSDQNHFRGEIEETITESFGNDHSTLDGYSRRTTLSSKMYHTKGQEGSVCLRSSDCASGLCCARHFWSKICKPVLKEGQVCTKHRRKGSHGLEIFQRCYCGEGLSC
B4: Dkk-1 clone D8 (F2/R2: Cys97-Cys245) (ligand, not shown: large carriers)
chain: CASPTRGGDAGVQICLACRKRRKRCMRHAMCCPGNYCKNGICVSSDQNHFRGEIEETITESFGNDHSTLDGYSRRTTLSSKMYHTKGQEGSVCLRSSDCASGLCCARHFWSKICKPVLKEGQVCTKHRRKGSHGLEIFQRCYCGEGLSC
B5: Dkk-1 clone isolated from the HOB03C5 osteoblast library (Gal4 activation domain fusion prey) (ligand, S. cerevisiae)
chain: ANFNQSGNIADSSLSFTFTNSSNGPNLITTQTNSQALSQPIASSNVHDNFMNNEITASKIDDGNNSKPLSPGWTDQTAYNAFGITTGMFNTTTMDDVYNYLFDDEDTPPNPKKETLNSVLNSNAIKNLPPPLGGAAGHPGSAVSAAPGILYPGGNKYQTIDNYQPYPCAEDEECGTDEYCASPTRGGDAGVQICLACRKRRKRCMRHAMCCPGNYCKNGICVSSDQNHFRGEIEETITESFGNDHSTLDGYSRRTTLSSKMYHTKGQEGSVCLRSSDCASGLCCARHFWSKICKPVLKEGQVCTKHRRKGSHGLEIFQRCYCGEGLSCRIQKDHHQASNSSRLHTCQRH
notes: also called Gal4AD-Dkk prey

target: T1, Zmax1/LRP5 ligand binding domain bait …; experiment: Y2H, growth on selective media
Description: (§1) These clones were transformed into yeast and mated with each of three yeast strains containing pDBleu (Gibco/BRL), pDBleuLBD1, and pDBleuLBD4. Positive interactions were detected by growth of the hybrids on appropriate selective media.

binding result	Binder
no binding	B1
no binding	B2
binds	B3
binds	B4

target: T2, Zmax1/LRP5 ligand binding domain bait …; experiment: Y2H, growth on selective media
Description: as §1

binding result	Binder
no binding	B1
no binding	B2
binds	B3
binds	B4

target: T3, LRP5LBD-LexA bait; experiment: Y2H interaction trap, lacZ reporter under a single LexA operator
Description: For example, the Interaction Trap methodology can be used as follows.

fold activation of lacZ reporter over the background	Binder
> 20 fold	B5
